Measurements: US10208121B2, “Anti-Axl antagonistic antibodies” (BERGEN TEKNOLOGIOVERFORING AS, priority 2014, dated 2019)
Entries after “also recorded” stand apart in the source; their conditions may differ.

B1: 10G5: mouse anti-Axl monoclonal antibody from hybridoma WR-10G5-E5, IgG1; VH SEQ ID NO: 21, VL SEQ ID NO: 22 (antibody, listed as Mus musculus, V domains shown)
VH: QVQLQQSGAELVRPGASVKLSCKASGYSFTDFYINWVRQRPGQGLEWIARIFPGGDNTYYNEKFKGKATLTAEESSSTAYIQLSSLTSEDSAVYFCARRGLYYAMDYWGQGISVTVSS
VL: DVLMTQTPLSLPVSLGDQASISCRSSQSLVHSNGIPYLHWYLQKPGQSPKLLIYRVSNRFSGVPDRFSGSGSGTDFTLKISRVEAEDLGVYFCSQGTHVPPTFGGGTKLEIK
B2: 10C9: mouse anti-Axl monoclonal antibody from hybridoma UT-10C9-B9, IgG2b; VH SEQ ID NO: 3, VL SEQ ID NO: 4 (antibody, listed as Mus musculus, V domains shown)
VH: QVQLQQPGPELVKPGASVKISCKTSDYNFTRYYIHWVKQRPGQGLEWIGWIYPGTGDSKYNEKFKGRATLTADTSSSTAYMQLSSQTSEDSAVYFCARNGNYWYFDVWGAGTAVTVSS
VL: DIVMTQAAPSGPVTPGESVSISCRSSKSLLHSNGNTYLYWFLQRPGQSPQLLIYRMSNLASGVPDRFSGSGSGTAFTLRISRVEAEDVGIYYCMQHREYPFTFGGGTKLEIK

Key:
[1] = target: T1, mouse Axl (rmAxl-Fc chimera) (Mus musculus, UniProt Q00993); assay: Biacore binding analysis on immobilized mouse Axl; settings: 10 μg/mL, 25° C.
T1 construct: The soluble recombinant antigens corresponding to human Axl (rhAxl-Fc chimera; R&D Systems, Cat. no; 154-AL), mouse Axl (rmAxl-Fc chimera; purchased R&D Systems 854-AX
T1 sequence (Q00993 19-445 limits assumed, change not shown): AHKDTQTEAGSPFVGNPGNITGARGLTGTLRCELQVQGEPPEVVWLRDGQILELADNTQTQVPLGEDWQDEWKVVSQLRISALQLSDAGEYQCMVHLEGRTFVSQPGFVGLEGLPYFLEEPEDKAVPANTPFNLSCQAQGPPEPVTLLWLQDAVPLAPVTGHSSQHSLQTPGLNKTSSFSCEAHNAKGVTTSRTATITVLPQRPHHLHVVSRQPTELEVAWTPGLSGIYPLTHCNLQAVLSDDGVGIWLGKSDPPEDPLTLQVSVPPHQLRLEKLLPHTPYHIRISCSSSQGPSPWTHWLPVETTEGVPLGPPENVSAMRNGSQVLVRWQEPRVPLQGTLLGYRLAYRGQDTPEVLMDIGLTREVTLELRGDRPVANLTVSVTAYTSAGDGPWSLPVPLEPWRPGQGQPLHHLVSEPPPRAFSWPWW
Experimental: The binding experiments were performed using Biacore 3000 instrument (GE Healthcare) at 25° C. The soluble recombinant antigens corresponding to human Axl (rhAxl-Fc chimera; R&D Systems, Cat. no. 154-AL), mouse Axl (rmAxl-Fc chimera; R&D Systems, R&D Systems; Cat. no. 854-AX) and human Tyro3 (rhTyro3/Dtk-Fc chimera; R&D Systems, Cat. no. 859-DK) were immobilized on the surface of CM5 sensor chip using amine coupling at the surface density of 1,308.0, 2,115.9 and 1,429.0 RU, respectively. The Biacore runs were performed in an automatic mode using Binding analysis wizard.
The sample containing either MAb 10C9, MAb 10G5 or recombinant mouse (rm) Axl-ligand Gas6 (R&D Systems, Cat. no. 986-GS/CF) at concentration 10 μg/mL in HBS-EP buffer (GE Healthcare) was injected over the surfaces with immobilized antigens at flow rate of 30 μL/min for 3 min (association) followed by 5 min dissociation.

Axl^+ cells = assay: Flow cytometry binding of hybridoma antibody clones to Axl+ cells; assay type: cell-based; settings: hybridoma clone selection
Experimental: For flow cytometry, the adherent cells in culture were washed with PBS, detached by trypsin (0.25%) treatment for 1 min and hitting culture dish for full detachment. Trypsin was quenched by adding into the tissue flask the complete medium followed by washing the cells with PBS. During the washing steps, the cells were collected by centrifugation at 200 g for 5 min. The antibody was diluted for total concentration in PBS containing 0.02% bovine serum albumin (BSA).
Cell staining was performed using 200 μL of cell suspension comprising 10^5 cells for 20 min at room temperature. After two washing steps with PBS/0.02% BSA, the cells were resuspended in 200 μL incubated with an APC-conjugated donkey anti-mouse IgG (H+L) secondary antibody (Jackson Laboratories, Cat. no. 715-136-150) at concentration 2 μg/mL for 20 min at room temperature. The stained cells were washed twice with PBS/0.02% BSA and kept on ice before analysis using a BD LSR Fortessa cell analyzer (BD Biosciences).

MDA-MB-231 cells = assay: Treatment of established stellate-shaped 3D tumour masses; assay type: cell-based, human; settings: MDA-MB-231, 72 hours, versus control IgG
Experimental: Effect of anti-Axl antibodies 10C9 and 10G5 on established 3D organotypic tumour masses. The developed 9-days old stellate-shaped 3D organoid masses of human mammary carcinoma cells (MDA-MB-231) were treated with either control IgG or anti-Axl antibodies 10C9 and 10G5 for 72 hours. Images were captured using bright field; arrows indicate apoptotic, degrading stellate-shaped cells.
MDA-MB-231 cells were grown on extracellular matrix and allowed to form the highly aggressive stellate shaped morphology. Stellate-shaped tumour masses were then treated with the control IgG and antibodies 10C9 and 10G5, as described in EXAMPLE 7.

rhAxl-Fc = target: T2, rhAxl-Fc (Homo sapiens, UniProt P30530); assay: Biacore competitive binding study on rhAxl-Fc (two sample injection); settings: for competition for Axl binding with control antibody MAB154 / inhibition of Gas6 binding to Axl: rhAxl saturated with antibody; for competition for Axl binding with control antibody MAB154: then MAB154 at 25 μg/mL; for inhibition of Gas6 binding to Axl: then rhGas6 or rmGas6 at 25 μg/mL; for blocking of binding of the other antibody (10C9 / 10G5) to Axl: rhAxl saturated with first antibody, second antibody at 25 μg/mL
T2 construct: Soluble recombinant antigens corresponding to the extracellular domains of members of the human TAM receptor family; purchased R&D Systems 154-AL
Experimental: A competitive binding study was performed using Biacore 3000 instrument (GE Healthcare) and Binding Analysis wizard with several cycles of two samples injection. As a first sample, a saturating concentration of MAb 10C9 (790 nM or 120 μg/mL) or 10G5 (160 nM or 24 μg/mL) was injected over the surface of a CM5 sensor chip coated with rhAxl-Fc (using amine coupling) for 3 min at flow rate of 30 μL/min followed by 2.5 min stabilization (HBS-EP buffer alone) before the injection of the second sample. The following second samples were used: recombinant human (rh) Gas6 (R&D Systems, Cat. no. 885-GS), recombinant mouse (rm) Gas6 (R&D Systems, Cat. no. 986-GS/CF) and a panel of anti-Axl antibodies, such as MAB154 (R&D Systems, Cat. no. MAB154), 10C9 and 10G5; all at concentration 25 μg/mL. The second sample was injected for 3 min, followed by 2.5 min stabilization (buffer alone) and regeneration of the surface by 30 sec injection of a regeneration solution (10 mM HCl, 1 M NaCl) at flow rate 50 μL/min.

Molecule | binding to mouse Axl [1] | binding to Axl^+ cells in flow cytometry (Axl^+ cells) | effect on established stellate-shaped 3D tumour masses (MDA-MB-231 cells) | competition for Axl binding with control antibody MAB154 (rhAxl-Fc) | inhibition of Gas6 binding to Axl (rhAxl-Fc) | blocking of binding of the other antibody (10C9 / 10G5) to Axl (rhAxl-Fc)
B1 | no binding | specific binding | degradation of stellate patterns | did not compete | inhibit the binding of Axl to its ligand Gas6; also recorded: inhibited Axl binding by its ligand Gas6 | blocked binding of each other
B2 | no binding | specific binding | degradation of stellate patterns | did no inhibit; also recorded: did not compete | inhibit the binding of Axl to its ligand Gas6; also recorded: cannot be bound; also recorded: inhibited Axl binding by its ligand Gas6 | cannot be bound; also recorded: blocked binding of each other
